Experiments:
[1] = biological target: T1, Raf-1 proteins present in T-cell lysates (Homo sapiens, UniProt P04049); test: Cell-free system: binding of Raf-1 from T-cell lysates to FLAG-HMK-IL-2Rβ chain fusion proteins on anti-FLAG beads, anti-Raf-1 immunoblot; conditions: lysates from PHA activated peripheral blood mononuclear cells, FIG. 8b
T1 construct: endogenous in cells; host or cells: PHA-stimulated human peripheral blood mononuclear cells (T cells), lysate
Text: (ii) In order to study the interaction of IL-2Rβ chain with intracellular molecules, the FLAG-HMK-IL-2Rβ chain cytoplasmic domain fusion protein was purified from bacterial lysate using the M2 anti-FLAG monoclonal antibody in a standard affinity chromatography procedure. More specifically, bacterial lysate proteins were absorbed onto anti-FLAG (M2) affinity column (IBI-Kodak, New Haven, Conn., USA). After washing the column, the adsorbed proteins were eluted with either glycine buffer (pH 3) or FLAG peptide (10^−4M). Proteins in various fractions were analyzed for expected size (about 33 kDa) and purity after separation on SDS-PAGE and Commassie blue staining. The presence of a functional HMK recognition site was confirmed by phosphorylation of the purified 33 kDa IL-2Rβ chain fusion protein by HMK. More specifically, the eluted fusion proteins were tested for susceptibility to phosphorylation by incubation with the catalytic subunit of bovine heart muscle kinase (Sigma) (1 U/ul) in buffer containing 20 mM Tric-HCl, pH 7.5, 1 mM DTT, 100 mM NaCl, 10 mM MgCl2 and 1μCi [γ^32p] ATP for 30 min at 37° C. followed by SDS-PAGE and autoradiography. Purified FLAG-HMK-IL-2Rβ chain fusion proteins were used as an affinity reagent to probe for cytosolic proteins present in lysates of human T cells, metabolically labeled with [^35S ]-methionine, that bind to the IL-2Rβ chain. […] For [^35S]-methionine labeling, the cells were suspended at 4×10^7 cells/ml at 37° C. followed by addition of 0.5 mCi of [^35S]-methionine for 4 hours prior to lysis in Dounce homogenization buffer and application of the lysate to the affinity column. Several [^35S]-labeled proteins were retained by the FLAG-HMK-IL-2Rβ chain cytosolic domain fusion protein bound to the affinity column. One of these proteins was identified as Raf-1 by immunoblotting using a polyclonal antibody specific for the SP-63 peptide which corresponds to the C-terminal fragment of Raf-1. A molar excess of the competing SP-63 peptide blocked binding of the anti-SP-63 antibody to Raf-1.
Using the basic cell-free system described above, a number of FLAG-HMK-IL-2Rβ chain wild type FLAG-HMK-IL2Rβ chain deletion mutant proteins were then studied with respect to this specific interaction with Raf-i proteins present in T-cell lysates. These FLAG-HMK-IL2Rβ chain wild type (WT) and deletion mutants lacking certain defined domains of the IL-2Rβ chain were used to identify the IL-2Rβ chain domain involved in Raf-1 binding. Assay conditions were similar to those described above. […] In FIG. 1, there is shown, schematically, all of the constructs, i.e., FLAG-HMK-IL-2Rβ chain fusion proteins produced in transformed bacterial cells and used in this study. These FLAG-HMK- fusion proteins-coated beads were then used as affinity reagents to absorb Raf-1 proteins present in T-cell lysates. T-cell derived proteins bound to FLAG-HMK fusion proteins were then eluted using buffer containing FLAG peptide, separated on SDS-PAGE, transferred onto Immobilon membrane and blotted with anti-Raf-1 antibody.
The absorbed proteins were washed, eluted with FLAG peptide and probed for the presence of Raf-1 and 14-3-3 proteins on immunoblots. […] Washed cells (about 4×10^7) were lysed in Dounce homogenization buffer, centrifuged (15×10^3 xg for 15 min.) and supernatants applied onto washed anti-FLAG (M2) affinity column (IBI-Kodak) coated with bacterial lysates interacted with one of the FLAG-HMK fusion proteins. […]

Raf-1 = test: COS cells transfected with IL-2Rβ chain constructs, immunoprecipitated with Mik-β1, blotted with anti-Raf-1; format: cell-based; conditions: transfected COS cell lysates, FIG. 8a
Protocol: (§1) COS cells were transfected via the DOTAP method (Boehringer-Mannheim, Indianapolis, Ind.) following the manufacturer's instructions. The transfection cocktail contained 5 μg of DNA total and […] of DOTAP in a final volume of […] HBS (25mM HEPES, pH 7.4 and lOOmM NaCl). The COS cells were grown in DMEM medium supplemented with 10% heat-inactivated fetal calf serum, penicillin/streptomycin, 25mM HEPES, pH 7.4, and L-glutamine. The COS cells were exposed to the transfection cocktail for 12 hours, washed and subsequently cultured in fresh medium. 24 hours after washing approximately 3×10^5 cells were harvested and washed twice in chilled PBS. A lysis buffer was prepared and consisted of […] NaCl, 50mM Tris pH=7.4, 0.5% CHAPS (Pierce), […] (Sigma), supplemented with the following protease inhibitors immediately before use: aprotinin (Sigma) 2.5mg/ml, leupeptin (Boehringer-Mannheim) 2.5 mg/ml; Pepstatin A (Boehringer-Mannheim) […], PMSF (Sigma) […], NaF (Sigma) 100mm and sodium orthovanadate (Sigma) lmM. The transfected COS cells were lysed in 0.5 ml of lysis buffer on ice for 10 minutes, and subsequently centrifuged at 12,000 xg for 5 minutes, remaining supernatants were collected, and supplemented with pre-immune serum and protein G-agarose beads (BRL-Gibco, Gaithersburg, MD), which had been previously washed in lysis buffer. […]

14-3-3 proteins = test: COS cells transfected with IL-2Rβ chain constructs, immunoprecipitated with Mik-β1, blotted with anti-14-3-3; format: cell-based; conditions: transfected COS cell lysates, FIG. 8a
Protocol: as §1

binding to Raf-1 [1]: bound to Raf-1
B1: IL-2Rβ-WT: human IL-2Rβ chain wild type expressed in COS cells from pRcCMV (protein)
chain: AVNGTSQFTCFYNSRANISCVWSQDGALQDTSCQVHAWPDRRRWNQTCELLPVSQASWACNLILGAPDSQKLTTVDIVTLRVLCREGVRWRVMAIQDFKPFENLRLMAPISLQVVHVETHRCNISWEISQASHYFERHLEFEARTLSPGHTWEEAPLLTLKQKQEWICLETLTPDTQYEFQVRVKPLQGEFTTWSPWSQPLAFRTKPAALGKDTIPWLGHLLVGLSGAFGFIILVYLLINCRNTGPWLKKVLKCNTPDPSKFFSQLSSEHGGDVQKWLSSPFPSSSFSPGGLAPEISPLEVLERDKVTQLLLQQDKVPEPASLSSNHSLTSCFTNQGYFFFHLPDALEIEACQVYFTYDPYSEEDPDEGVAGAPTGSSPQPLQPLSGEDDAYCTFPSRDDLLLFSPSLLGGPSPPSTAPGGSGAGEERMPPSLQERVPRDWDPQPLGPPTPGVPDLVDFQPPPELVLREAGEEVPDAGPREGVSFPWSRPPGQGEFRALNARLPLNTDAYLSLQELQGQDPTHLV
binding of Raf-1 (Raf-1): bound
binding of 14-3-3 proteins (14-3-3 proteins): bound

Source: patent US20010016194A1 (priority 1999, published 2001)
